Test results: PMC4477863

Target: Shroom2 ASD2 domain (UniProt Q13796)
Experiment: pull-down of Ala mutants
Conditions: reference: Scrib-C wild type; sites S1508

Chain of UniProt Q13796 (Q13796 whole entry, looked up, the tested form may be a part): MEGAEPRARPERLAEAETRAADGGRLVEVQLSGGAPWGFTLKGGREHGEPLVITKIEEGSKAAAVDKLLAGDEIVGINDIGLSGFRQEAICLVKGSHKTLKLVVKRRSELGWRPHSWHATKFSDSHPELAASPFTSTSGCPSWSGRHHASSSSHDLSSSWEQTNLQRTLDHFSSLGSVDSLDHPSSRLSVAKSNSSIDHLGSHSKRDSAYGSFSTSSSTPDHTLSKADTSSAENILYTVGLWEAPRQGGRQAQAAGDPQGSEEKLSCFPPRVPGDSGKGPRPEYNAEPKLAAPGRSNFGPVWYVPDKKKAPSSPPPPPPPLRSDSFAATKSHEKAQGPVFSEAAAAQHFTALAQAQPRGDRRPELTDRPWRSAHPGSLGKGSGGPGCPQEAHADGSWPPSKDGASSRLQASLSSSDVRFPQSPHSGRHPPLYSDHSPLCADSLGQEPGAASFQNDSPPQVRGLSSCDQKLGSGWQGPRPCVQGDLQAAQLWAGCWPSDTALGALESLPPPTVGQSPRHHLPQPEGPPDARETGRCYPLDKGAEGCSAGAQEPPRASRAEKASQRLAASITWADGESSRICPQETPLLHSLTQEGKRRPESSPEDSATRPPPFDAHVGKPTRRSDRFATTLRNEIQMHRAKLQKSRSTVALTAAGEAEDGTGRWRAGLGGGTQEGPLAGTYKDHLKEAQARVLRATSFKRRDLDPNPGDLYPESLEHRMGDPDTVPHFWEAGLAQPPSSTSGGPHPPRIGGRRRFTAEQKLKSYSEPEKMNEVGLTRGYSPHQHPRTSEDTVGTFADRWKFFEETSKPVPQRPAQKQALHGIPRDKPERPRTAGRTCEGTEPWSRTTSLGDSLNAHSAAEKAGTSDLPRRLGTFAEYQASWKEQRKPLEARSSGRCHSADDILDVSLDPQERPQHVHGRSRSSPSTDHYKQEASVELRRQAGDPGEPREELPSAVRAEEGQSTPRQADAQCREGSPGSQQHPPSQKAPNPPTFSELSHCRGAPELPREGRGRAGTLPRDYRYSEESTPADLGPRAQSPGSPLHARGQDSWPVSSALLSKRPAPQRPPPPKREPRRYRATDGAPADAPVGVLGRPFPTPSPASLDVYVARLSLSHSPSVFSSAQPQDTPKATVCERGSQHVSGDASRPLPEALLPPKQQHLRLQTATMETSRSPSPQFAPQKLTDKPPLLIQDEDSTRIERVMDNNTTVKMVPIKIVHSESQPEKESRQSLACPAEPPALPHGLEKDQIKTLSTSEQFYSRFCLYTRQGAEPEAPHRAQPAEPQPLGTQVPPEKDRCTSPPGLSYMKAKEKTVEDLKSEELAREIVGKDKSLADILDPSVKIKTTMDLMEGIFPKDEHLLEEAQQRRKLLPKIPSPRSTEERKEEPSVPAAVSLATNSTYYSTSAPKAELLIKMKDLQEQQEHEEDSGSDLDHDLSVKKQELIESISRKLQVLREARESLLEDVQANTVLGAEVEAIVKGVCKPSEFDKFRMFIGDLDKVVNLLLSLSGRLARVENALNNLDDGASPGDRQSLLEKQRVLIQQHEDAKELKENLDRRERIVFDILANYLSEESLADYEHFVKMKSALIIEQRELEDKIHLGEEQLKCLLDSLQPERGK

Which “binding against the reference” value does the source give for “Scrib Scrib-C, 1235-1630 (from UniProt Q14160-1) Scrib-C S1508A” here?
The value was “weaker”.
